{"source": "patent US20180086810A1", "about": "“T CELL RECEPTOR FUSIONS AND CONJUGATES AND METHODS OF USE THEREOF” (ALTOR BIOSCIENCE CORPORATION, priority 2000, published 2018)", "key": {"[1]": {"biological_target": "264 peptide/HLA-A2 complex on T2 cells (human)", "experiment": "cell-based or functional assay"}, "[2]": {"biological_target": "149 peptide/HLA-A2 complex on T2 cells (human)", "experiment": "cell-based or functional assay"}}}
{"substance": "264 scTCR-IL-2 fusion protein (from UniProt P60568 21-153)", "values": [{"measurement": "conjugation between CTLL-2 cells and peptide-loaded T2 cells (flow cytometry, percent conjugates)", "setting": "[1]", "value": 3.25, "unit": "%"}, {"measurement": "conjugation between CTLL-2 cells and peptide-loaded T2 cells (flow cytometry, percent conjugates)", "setting": "[2]", "value": 0.88, "unit": "%"}]}
